Test results reported in paper PMC11661108 (bioRxiv, 2024).
Where “and” joins values, the source holds several entries; their conditions need not be identical. Equal entries are not always repeated.

Assays:
Experiment in all cases: BLI
RBD of SARS-CoV-2 BA.1 = RBD of SARS-CoV-2 BA.1 (SARS-CoV-2 Omicron BA.1, strain, biotin (Avi tag))
RBD of SARS-CoV-2 EG.5.1 = RBD of SARS-CoV-2 EG.5.1 (SARS-CoV-2 Omicron EG.5.1, strain, biotin (Avi tag))
RBD of SARS-CoV-2 HV.1 = RBD of SARS-CoV-2 HV.1 (SARS-CoV-2 Omicron HV.1, strain, biotin (Avi tag))

B1: Fab-52 (Fab, V domains shown)
VH: EVQLVQSGGDLAPPGGSLRLSCEASGIIVSSNYMTWVRQAPGKGLEWVSLIFAGGSTFYADSVKGRFTVSRDNSKNTLYLQMSSLKPEDTAVYFCARDLREMGGLDFWGQGALVTVSS
VL: DIQMTQSPSSVSASIGDTVTITCRASQGIPSWVAWYQQKPGKAPKLLIYGASNLQRGVPSRFSGSGSGTDFTLTISSLQPEDLAVYYCHQSDSLPGIFGGGTKVEIK
In the case of B1, the Kd (RBD of SARS-CoV-2 BA.1) is reported as 1.1 nM, the Kd (RBD of SARS-CoV-2 EG.5.1) is reported as 10 nM and 7 nM and the Kd (RBD of SARS-CoV-2 HV.1) is reported as 12.2 nM and 9.1 nM.
